Assay results from patent US20140302063A1 (SECRETARY OF STATE FOR HEALTH, published 2014).

Assays:
[1] = target: T1, recombinant H2 A/Japan/305/1957 (H2N2) (Influenza A virus A/Japan/305/1957 …, UniProt P03451 16-525); experiment: SPR, single cycle kinetics
[2] = target: full length recombinant H1 residues 18-530 derived from A/California/06/09 (Influenza A virus A/California/06/09 (H1N1)); experiment: SPR, single cycle kinetics, HA immobilised
[3] = target: Recombinant haemagglutinin HA1 domain (18-344) (A/California/06/09) H1N1 (Influenza A virus A/California/06/09 (H1N1)); experiment: SPR, single cycle kinetics, HA1 domain immobilised
[4] = target: recombinant H5 A/Vietnam/1203/04 (H5N1) (Influenza A virus A/Vietnam/1203/04 (H5N1)); experiment: SPR, single cycle kinetics, HA immobilised
[5] = target: recombinant H9 A/HongKong/1073/99 (H9N2) (Influenza A virus A/HongKong/1073/99 (H9N2)); experiment: SPR, single cycle kinetics, HA immobilised
[6] = target: T1, recombinant H2 A/Japan/305/1957 (H2N2); experiment: SPR, single cycle kinetics, HA immobilised

B1: R1a-G6 (VHH)
VHH: QVQLVESGGGLVQSGGSLRLSCAASGSMSRIITMGWYRQAPGMERELVAVIGNNDNTVYGDSVQGRFTVSRDNAKNTAYLQMNSLNAEDTAMYYCKISTLTPPHEYWGQGTQVTVSS
- binding result [1]: no binding (tested: 100 nM)
- Kd [2]: 4.4 nM
- Kd [3]: 4.6 nM

B2: R2b-E8 (VHH)
VHH: QVQLVESGGGLVQPGGSLRLSCAASGSFFSRYRMGWYRQAPGEQRELVAGITYDDSTNYAGSVKGRFTISRDNAKNTVHLQMNSLKPEDTAVYYCNLNPPGNLYWGQGTQVTVSS
- binding result [1]: no binding (tested: 100 nM)
- Kd [2]: 8.2 nM
- Kd [4]: 3.6 nM
- Kd [5]: 87 nM

B3: R1a-A5 (VHH)
VHH: QVQLVESGGGLVQPGGSLRLSCSASGSAVLFSTYPMSWYRQAPGKQRELVAAVTTDGSTSYADYAKGRFTISRDNAKNTVYLQMNSLKPEDTAVYYCNARDGFFNRYDYWGQGTQVTVSS
- Kd [2]: 3.3 nM
- Kd [4]: 0.7 nM
- Kd [6]: 186 nM

B4: R2b-D8 (VHH)
VHH: QVQLVESGGGLVQPGGSLRLSCAASGFTFSWYDVGWYRRAPGKERELVADIASTRGTTNYADSVKGRFTISRDNAKNSVYLQMNSLKPEDTAVYYCNTRRDWRDYWGQGIQVTVSS
- binding result [1]: no binding (tested: 100 nM)

B5: R1a-H6 (VHH)
VHH: QVQLVESGGGLVQAGDSLRLSCTASVLTFSLYRVGWFRQAPGKEREFVAAIDWGDGPTTYADSVKGRFTISRDNAERTAYLQINSLKPEDTAVYYCGAGNTGSSDRSSSYVHWGQGTQVTVSS
- binding result [1]: no binding (tested: 100 nM)
- Kd [4]: 241 nM

B6: R2a-G8 (VHH)
VHH: QLQLAESGGGLVQAGGSLRLSCAASGSTLNNNAIGWFRQAPGKEREGVSCMNSRDGTTNYADSVKGRFTISRDVAKNTVYLQMNSLKPEDTAVYFCAVKGFAPFLIGCPWGKAEYDYWGQGTQVTVSS
- Kd [2]: 3.1 nM
- Kd [4]: 9 nM
- Kd [3]: 7.7 nM
- Kd [6]: 39 nM

B7: R1a-C5 (VHH)
VHH: QVQLVESGGGLVQPGGSLRLSCAASNDIFSFYTMGWYLQAIGKQREPVAVIGNGGNTNYAESVKGRFTISRDGAKNTAYLQMNSLKPEDTAVYYCMASGPGGLNVWGQGTQVTVSS
- Kd [2]: 1.9 nM
- Kd [4]: 2.7 nM
- Kd [5]: 22 nM
- Kd [3]: 734 nM
- Kd [6]: 67 nM

B8: R1a-E5 (VHH)
VHH: QLQLVESGGGLVQPGGSLRLSCTASGFSLDNYAIGWFRRAPGEEREGVSFITSTSAVTKYADSVKGRFTISRDNAKNTVYLQMTSLKPEDTAVYYCAGTRWVPTMKADEYNYWGQGTQVTVSS
- binding result [1]: no binding (tested: 100 nM)
- Kd [2]: 0.6 nM

B9: R2a-F9 (VHH)
VHH: QVQLVESGGGLVQPGGSLRLSCSASGSISSIVTMGWYRQAPGKERELVAVIGNYGNTNYADSVKGRFTVSRDNAKNTVYLQMNSLNVEDTAMYVCKFSSTVAPHEYWGQGTQVTVSS
- binding result [1]: no binding (tested: 100 nM)
- Kd [2]: 60 nM
- Kd [3]: 79 nM

B10: R2a-G9 (VHH)
VHH: QVQLVESGGGLVQPGGSLRLSCAASDNIFSFYTMGWYRQSPGKERELVAVIGNGGNTNYADSVKGRFTISRDNGKNKAHLQMNSLKPEDTAVYYCKASGPGGVEVWGQGTQVTVSS
- binding result [1]: no binding (tested: 100 nM)
- Kd [2]: 62 nM
- Kd [3]: 69 nM

B11: R1a-F5 (VHH)
VHH: QLQLVESGGGLVQVGGSLRLSCAASGFPFDGYAIAWFRQAPGKEREGVSCRASDGNTYYAESLKGRLTMSTDNAKNTVYLQMNSLKPEDTAVYYCAAASWVASLWSPSEYDYWGQGTQVTVSS
- binding result [1]: no binding (tested: 100 nM)
- Kd [2]: 9.2 nM
- Kd [3]: 6.1 nM

B12: R1a-B6 (VHH)
VHH: QVQLVESGGGLVQPGGSLRLSCAASGSFFSRYRMGWYRQAPGEQRELVASIAYDGSTSYADPVKGRFTISRDNANTVHLQMYSLKPDDTAVYYCNLDPPGILYWGQGTQVTVSS
- Kd [2]: 0.7 nM
- Kd [4]: 1.7 nM
- Kd [5]: 7.6 nM
- Kd [6]: 43 nM

B13: R2a-B9 (VHH)
VHH: QVQLVESGGGLVQPGGSLRLSCAASGSAFSINAMGWYRQAPGEEREFVAAITAGGNTYYADSAKARFTISRDNAKNMLYLQMNSLKPEDTAMYYCAATKAFGIATITADYELWGQGTQVTVSS
- binding result [1]: no binding (tested: 100 nM)
- Kd [2]: 0.2 nM

B14: R2b-D9 (VHH)
VHH: QVQLVESGGGLVQPGGSLRLSCLASGSAFSLYTMGWYRQAPGNQRELVAAITSGESTNYADSVKGRFTISRDNAKNTVYLQMNSLKPEDTAVYYCNADPLSTGWGQYSYWGQGTQVTVSS
- binding result [1]: no binding (tested: 100 nM)
- Kd [2]: 0.4 nM
- Kd [4]: 1.6 nM
- Kd [5]: 59 nM

B15: R2a-E8 (VHH)
VHH: QLQLVESGGGLVQPGGSLRLSCTASGDIFVMYMIDWYRQAPGKQRELVASIDGRGTPMYADSVKGRFTISRDNAKNTVYLQMNSLKPEDTAVYSCHAKSPLVDNEYWGQGTQVTVSS
- Kd [2]: 0.8 nM
- Kd [6]: 34 nM

B16: R1a-G5 (VHH)
VHH: QLQLVESGGGLVQPGGSLRLSCAASGSISRIVTMGWYRQASGKERELVAVIGNYGNTNYADSVKGRFTVSRDNAKDTAYLQMNGLNVEDTAIYYCKTSTTTPPYEYWGQGTQVTVSS
- binding result [1]: no binding (tested: 100 nM)
- Kd [2]: 24 nM
- Kd [3]: 26 nM

B17: R1a-F4 (VHH)
VHH: QVQLVESGGGLVQPGGSLRLSCAASGSISRIVTMGWYRQGPGKERELVAVIGNYGNTNYADSVKGRFTVSRDNAKDTAYLQMNNLNVEDTAMYYCKCSTTTPPHEFWGQGTQVTVSS
- binding result [1]: no binding (tested: 100 nM)
- Kd [2]: 7.3 nM
- Kd [3]: 4.7 nM

B18: R1a-E6 (VHH)
VHH: QVQLVESGGGLVQPGGSLRLSCAASGFTLGAYAIAWFRQAPGKEREGVSCISPSDSFTEYGDSVKGRFTVSRDNAKNTVYLQMNSLQPEDTAVYYCAADPVCTAGWYRPSRFDLWGQGTQVTVSS
- binding result [1]: no binding (tested: 100 nM)
- Kd [2]: 22.8 nM
- Kd [3]: 36 nM

B19: R2a-H9 (VHH)
VHH: QVQLVESGGGLVQPGGSLRLSCAASTNIASFYTMGWYRQTPGQQRDVVAVIGNGGNTNYADSVKGRFTISRDGAKNTAHLQMNSLKPEDTDVYYCKASGPGGVILWGQGTQVTVSS
- Kd [2]: 2.8 nM
- Kd [3]: 4.7 nM
- Kd [6]: 40 nM
